Experimental findings from patent US20230279126A1 (published 2023) are described below.

In the assay the target is T1, extracellular domain of mouse IL23R (mIL23R ECD) (mouse, UniProt Q8K4B4 24-374).
T1 construct: The immunogen was an ECD-human IgG1 hinge-Fc fusion
T1 sequence: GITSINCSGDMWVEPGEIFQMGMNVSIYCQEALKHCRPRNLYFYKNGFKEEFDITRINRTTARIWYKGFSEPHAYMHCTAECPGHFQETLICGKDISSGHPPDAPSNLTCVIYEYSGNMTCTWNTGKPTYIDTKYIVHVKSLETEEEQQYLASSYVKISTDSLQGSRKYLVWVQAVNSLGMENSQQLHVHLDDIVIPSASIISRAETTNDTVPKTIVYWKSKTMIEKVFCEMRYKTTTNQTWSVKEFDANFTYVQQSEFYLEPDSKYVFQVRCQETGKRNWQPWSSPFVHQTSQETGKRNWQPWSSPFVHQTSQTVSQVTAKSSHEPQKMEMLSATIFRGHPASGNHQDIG
The assay can be described thus: periplasmic extract ELISA (PE-ELISA) of phage clones, colorimetric. In short, it runs like this:
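Camels were immunized in turn with fusion proteins joining the human or mouse receptor extracellular domain to a human IgG1 hinge and Fc, and their VHH domains were recovered. RNA from the blood was transcribed, and a VHH fragment of approximately 400 bp was cloned into a phagemid in E. coli, in frame with a his-tag. The resulting phage library was biopanned over multiple rounds against either the human or the mouse extracellular domain. Selective binding of single clones was read colorimetrically by periplasmic extract ELISA in 96-well plates.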
In general terms: ELISA stands for enzyme-linked immunosorbent assay.

B1: mIL23R VHH18 (VHH)
VHH: QVQLQESGGGLVQPGGSLRLSCAASGFTFRLTAMRWVRQAPGKGLEWVSGIDSRGSTIYADSVKGRFTISKDNAKNTLYLQLNSLKTEDTAMYYCAQGVYGDTYSGSQGTQVTVSS
notes: Phagemid clone with his-tag, periplasmic extract
On to B1, for which the binding result is given as “binds”.

B2: mIL23R VHH12 (VHH)
VHH: QVQLQESGGGSVQAGGSLRLSCAASGYTYSSCTMGWYRQAPGKERELVSMLISDGSTFYADSVKGRFTFSQENAKNTVYLQMNSLKPEDTAMYYCGCATLGSRTVWGQGTQVTVSS
notes: as for B1
Take B2: the binding result was “binds”.

B3: mIL23R VHH36 (VHH)
VHH: QVQLQESGGGSVQAGGSLRLSCAASGDTYSSCTMGWYRQAPGKERDLVSMVFSDGSTFYADSVKGRFTFSQENAKNTVYLQMNSLKPEDTAMYYCGCATLGSRTIWGQGTQVTVSS
notes: as for B1
Turning to B3, the binding result is on record as “binds”.

B4: mIL23R VHH15 (VHH)
VHH: QVQLQESGGGSVQAGGSLRLSCAASGYTYSSCTMGWYRQAPGKERELVSMVFSDGSTFYADSVKGRFTFSQENAKNTVYLQMNSLKPEDTAMYYCGCATLGSRTIWGQGTQVTVSS
notes: as for B1
As to B4, the binding result is on record as “binds”.

B5: mIL23R VHH8 (VHH)
VHH: QVQLQESGGGSVQAGGSLRLSCTASRYTYSSCTMGWYRQAPGKERELVSMVFSDGSTFYADSVKGRFTFSQENAKNTVYLQMNSLKPEDTAMYYCGCATLGSRTIWGQGTQVTVSS
notes: as for B1
Take B5: the binding result is listed as “binds”.

B6: mIL23R VHH16 (VHH)
VHH: QVQLQESGGGSVQAGGSLRLSCAASGDTYSSCTMGWYRQAPGKERDLVSMLMGDGSTFYADSVKGRFTFSQENAKNTVYLQMNNLKPEDTAMYYCGCATLGSRTIWGQGTQVTVSS
notes: as for B1
Regarding B6, the binding result is recorded as “binds”.

B7: mIL23R VHH27 (VHH)
VHH: QVQLQESGGGSVQAGGSLRLSCAASGYTYSSCTMGWYRQAPGKERELVSMLISDGSTFYADSVKGRFTSSQENAKNTVYLQMNSLKPEDTAMYYCGCATLGSRTVWGQGTQVTVSS
notes: as for B1
Turning to B7, the binding result was “binds”.

B8: mIL23R VHH1 (VHH)
VHH: QVQLQESGGGSVQAGGSLRLSCAASGYTYSSCTMGWYRQAPGKERELVSMLISDGSTFYADSVKGRFTFSQEYAKNTVYLQMNSLKPEDTAMYYCGCATLGSRTVWGQGTQVTVSS
notes: as for B1
B8: the binding result was “binds”.

B9: mIL23R VHH10 (VHH)
VHH: QVQLQESGGGSVQAGGSLRLSCAASGDTYSSCTMGWYRQAPGKERDLVSMLMGDGSTFYADSVKGRFTFSQENAKNTVYLQMNSLKPEDTAMYYCGCATLGSRTIWGQGTQVTVSS
notes: as for B1
Consider B9, for which the binding result is listed as “binds”.

B10: mIL23R VHH11 (VHH)
VHH: QVQLQESGGGSVQAGGSLRLSCAASGYTYSSCTMGWYRQAPGKERELVSMLISDGSTFYADSVKGRFTFSQENAKSTVYLQMNSLKPEDTAMYYCGCATLGSRTVWGQGTQVTVSS
notes: as for B1
Consider B10, for which the binding result is “binds”.

B11: mIL23R VHH25 (VHH)
VHH: QVQLQESGGGSVQAGGSLRLSCAASGYTYSSCTMGWYRQAPGKERELVSMLISDGSTFYADSVKGRFTFSQENAKNTVYLQMNSLKPEDTAMYFCGCATLGSRTVWGQGTQVTVSS
notes: as for B1
For the molecule B11, the binding result was “binds”.

B12: mIL23R VHH29 (VHH)
VHH: QVQLQESGGGLVQPGGSLRLSCAASGFTFSTSAMTWVRQAPGKGLDWVSGIDSGGTTVYADSVKGRFTISKDNAKNTLYLQMNSLKTEDTAVYYCATGLPWGNTWRTRGQGTQVTVSS
notes: as for B1
On to B12, for which the binding result is “binds”.

B13: mIL23R VHH37 (VHH)
VHH: QVQLQESGGGLVQPGGSLRLSCATSGFTFSSGAMTWVRQAPGKGLDWVSGIDSGGTTVYADSVKGRFTISKDNAKNTLYLQMNSLKTEDTAVYYCATGLPWGNTWRTTGQGTQVTVSS
notes: as for B1
With B13, the binding result is recorded as “binds”.

B14: mIL23R VHH41 (VHH)
VHH: QVQLQESGGGLVQPGGSLRLTCAASGFTFSTSAMTWVRQAPGKGLDWVSGIDSGGTTVYADSVKGRFTISKDNAKNTLYLQMNSLKTEDTAVYYCATGLPWGNTWRTRGQGTQVTVSS
notes: as for B1
In the case of B14, the binding result was “binds”.

B15: mIL23R VHH32 (VHH)
VHH: QVQLQESGGGLVRPGGSLRLSCAASGFTFSRSAMTWVRQAPGKGLDWVSGIDSGGTTVYADSVKGRFTISRDSAKNTLYLQMNSLKTEDTAVYYCAIGLPWGNTWRTRGQGTQVTVSS
notes: as for B1
Take B15: the binding result is on record as “binds”.

B16: mIL23R VHH21 (VHH)
VHH: QVQLQESGGGLVQPGGSLRLSCATSGFTFSSSAMTWVRQAPGKGLDWVSGIDSGGTTVYADSVKGRFTISKDNAKNTLYLQMNSLKTEDTAVYYCATGLPWGNTWRTTGQGTQVTVSS
notes: as for B1
B16: the binding result is “binds”.

B17: mIL23R VHH14 (VHH)
VHH: QVQLQESGGGLVQPGGSLRLSCAASGFTFRTSAMTWVRQAPGKGLDWVSGIDSGGTTVYADSVKGRFTISRDSAKNTLYLQMNSLKTEDTAVYYCAMGLPWGNTWRTRGQGTQVTVSS
notes: as for B1
For the molecule B17, the binding result is reported as “binds”.

B18: mIL23R VHH38 (VHH)
VHH: QVQLQESGGGLVQPGGSLRLSCAASGFTFSTSAMTWVRQAPGKGLDWVSGIDSGGTTVYADSVKGRFTISKDNAKNTLYLQMNSLKTEDTAVYYCATGLPWGNIWRTRGQGTQVTVSS
notes: as for B1
Take B18: the binding result is “binds”.

B19: mIL23R VHH39 (VHH)
VHH: QVQLQESGGGLVQPGGSLRLSCAASGFTFSRSAMTWVRQAPGKGLDWVSGIDSGGTTVYADSVKGRFTISRDSAKNTLYLQMNGLKTEDTAVYYCAIGLPWGNTWRTRGQGTQVTVSS
notes: as for B1
Consider B19, for which the binding result was “binds”.

B20: mIL23R VHH20 (VHH)
VHH: QVQLQESGGGLVQPGGSLRLSCAASGFTFSSSAMTWVRQAPGKGLDWVSGIDSGGTTVYADSVKGRATILKDNAKNTLYLQMNSLKTEDTAVYYCATGLPWGNTWRTRGQGTQVTVSS
notes: as for B1
Consider B20, for which the binding result is given as “binds”.

B21: mIL23R VHH7 (VHH)
VHH: QVQLQESGGGLVQPGGSLRLSCAASGFTFSRSAMTWVRQAPGKGLDWVSGIDSGGTTVYADSVKGRFTISRDSAKNTLYLQMNSLKTEDTAVYYCAIGLPWGNTWRTRGQGTQVTVSS
notes: as for B1
As for B21, the binding result was “binds”.

B22: mIL23R VHH33 (VHH)
VHH: QVQLQESGGGLVQPGGSLRLSCTTSGFTFSSSAMTWVRQAPGKGLDWVSGIDSGGTTVYADSVKGRFTISKDNAKNTLYLQMNSLKTEDTAVYYCATGLPWGNTWRTTGQGTQVTVSS
notes: as for B1
Turning to B22, the binding result is “binds”.

B23: mIL23R VHH35 (VHH)
VHH: QVQLQESGGGLVQPGGSLRLACSASGFTFSSSAMTWVRQAPGKGLDWVSGIDSGGTTVYADSVKGRATILKDNAKNTLYLQMNSLKTEDTAVYYCATGLPWGNTWRTRGQGTQVTVSS
notes: as for B1
B23: the binding result is given as “binds”.
